Data as given in patent US7070973B2, “Butyrylcholinesterase variants and methods of use” (priority 2000, dated 2006).

Experiment: Spectrophotometric (240 nm) cocaine binding and hydrolysis assay with purified butyrylcholinesterase variants
Assay type: biochemical
Conditions: for Km / kcat (hydrolysis rate): (−)-cocaine; for Km: 0.1M potassium phosphate pH 7.0 at 30° C.; for kcat (hydrolysis rate): active sites titrated with chlorpyrifos oxon; for Cocaine Binding or Cocaine Hydrolysis (result in words): Table 4
Procedure: […]. Pharmacol. 41:1249–1254 (1991). Km values were determined in 0.1M potassium phosphate pH 7.0 at 30° C. for (−)-cocaine. Vmax values and Km values were calculated using Sigma Plot for Macintosh (Jandel Scientific, San Rafael, Calif.).
Once Vmax values and Km values were calculated, the number of active sites in each butyrylcholinesterase preparation was determined. The titration of active sites was performed with chlorpyrifos oxon (MET-674B, Chem Service, West Chester, Pa.), an inhibitor of butyrylcholinesterase. One molecule of chlorpyrifos oxon binds and inhibits one molecule of butyrylcholinesterase, which allows for calculation of the number of active sites. Based on the number of active sites, the kcat value for each variant was calculated (Table 3). […].

Row | Molecule | Km | kcat (hydrolysis rate) | Cocaine Binding or Cocaine Hydrolysis (result in words)
1 | A328W (protein, Human Butyrylcholinesterase variant) MDSKVTIICIRFLFWFLLLCMLIGKSHTEDDIIIATKNGKVRGMNLTVFGGTVTAFLGIPYAQPPLGRLRFKKPQSLTKWSDIWNATKYANSCCQNIDQSFPGFHGSEMWNPNTDLSEDCLYLNVWIPAPKPKNATVLIWIYGGGFQTGTSSLHVYDGKFLARVERVIVVSMNYRVGALGFLALPGNPEAPGNMGLFDQQLALQWVQKNIAAFGGNPKSVTLFGESAGAASVSLHLLSPGSHSLFTRAILQSGSFNAPWAVTSLYEARNRTLNLAKLTGCSRENETEIIKCLRNKDPQEILLNEAFVVPYGTPLSVNFGPTVDGDFLTDMPDILLELGQFKKTQILVGVNKDEGTWFLVYGAPGFSKDNNSIITRKEFQEGLKIFFPGVSEFGKESILFHYTDWVDDQRPENYREALGDVVGDYNFICPALEFTKKFSEWGNNAFFYYFEHRSSKLPWPEWMGVMHGYEIEFVFGLPLERRDNYTKAEEILSRSIVKRWANFAKYGNPNETQNNSTSWPVFKSTEQKYLTLNTESTRIMTKLRAQQCRFWTSFFPKVLEMTGNIDEAEWEWKAGFHRWNNYMMDWKNQFNDYTSKKESCVGL | 10 µM | 0.62 s⁻¹ | –
2 | Q119Y (protein, UniProt P06276 29-602, looked up, variant Q119Y) Cholinesterase: EDDIIIATKNGKVRGMNLTVFGGTVTAFLGIPYAQPPLGRLRFKKPQSLTKWSDIWNATKYANSCCQNIDQSFPGFHGSEMWNPNTDLSEDCLYLNVWIPAPKPKNATVLIWIYGGGFYTGTSSLHVYDGKFLARVERVIVVSMNYRVGALGFLALPGNPEAPGNMGLFDQQLALQWVQKNIAAFGGNPKSVTLFGESAGAASVSLHLLSPGSHSLFTRAILQSGSFNAPWAVTSLYEARNRTLNLAKLTGCSRENETEIIKCLRNKDPQEILLNEAFVVPYGTPLSVNFGPTVDGDFLTDMPDILLELGQFKKTQILVGVNKDEGTAFLVYGAPGFSKDNNSIITRKEFQEGLKIFFPGVSEFGKESILFHYTDWVDDQRPENYREALGDVVGDYNFICPALEFTKKFSEWGNNAFFYYFEHRSSKLPWPEWMGVMHGYEIEFVFGLPLERRDNYTKAEEILSRSIVKRWANFAKYGNPNETQNNSTSWPVFKSTEQKYLTLNTESTRIMTKLRAQQCRFWTSFFPKVLEMTGNIDEAEWEWKAGFHRWNNYMMDWKNQFNDYTSKKESCVGL | 56 µM | 0.0333 s⁻¹ | not a cocaine hydrolase
3 | G116W (protein, UniProt P06276 29-602, looked up, variant G116W) Cholinesterase: EDDIIIATKNGKVRGMNLTVFGGTVTAFLGIPYAQPPLGRLRFKKPQSLTKWSDIWNATKYANSCCQNIDQSFPGFHGSEMWNPNTDLSEDCLYLNVWIPAPKPKNATVLIWIYGWGFQTGTSSLHVYDGKFLARVERVIVVSMNYRVGALGFLALPGNPEAPGNMGLFDQQLALQWVQKNIAAFGGNPKSVTLFGESAGAASVSLHLLSPGSHSLFTRAILQSGSFNAPWAVTSLYEARNRTLNLAKLTGCSRENETEIIKCLRNKDPQEILLNEAFVVPYGTPLSVNFGPTVDGDFLTDMPDILLELGQFKKTQILVGVNKDEGTAFLVYGAPGFSKDNNSIITRKEFQEGLKIFFPGVSEFGKESILFHYTDWVDDQRPENYREALGDVVGDYNFICPALEFTKKFSEWGNNAFFYYFEHRSSKLPWPEWMGVMHGYEIEFVFGLPLERRDNYTKAEEILSRSIVKRWANFAKYGNPNETQNNSTSWPVFKSTEQKYLTLNTESTRIMTKLRAQQCRFWTSFFPKVLEMTGNIDEAEWEWKAGFHRWNNYMMDWKNQFNDYTSKKESCVGL | – | – | no activity
4 | T120F (protein, UniProt P06276 29-602, looked up, variant T120F) Cholinesterase: EDDIIIATKNGKVRGMNLTVFGGTVTAFLGIPYAQPPLGRLRFKKPQSLTKWSDIWNATKYANSCCQNIDQSFPGFHGSEMWNPNTDLSEDCLYLNVWIPAPKPKNATVLIWIYGGGFQFGTSSLHVYDGKFLARVERVIVVSMNYRVGALGFLALPGNPEAPGNMGLFDQQLALQWVQKNIAAFGGNPKSVTLFGESAGAASVSLHLLSPGSHSLFTRAILQSGSFNAPWAVTSLYEARNRTLNLAKLTGCSRENETEIIKCLRNKDPQEILLNEAFVVPYGTPLSVNFGPTVDGDFLTDMPDILLELGQFKKTQILVGVNKDEGTAFLVYGAPGFSKDNNSIITRKEFQEGLKIFFPGVSEFGKESILFHYTDWVDDQRPENYREALGDVVGDYNFICPALEFTKKFSEWGNNAFFYYFEHRSSKLPWPEWMGVMHGYEIEFVFGLPLERRDNYTKAEEILSRSIVKRWANFAKYGNPNETQNNSTSWPVFKSTEQKYLTLNTESTRIMTKLRAQQCRFWTSFFPKVLEMTGNIDEAEWEWKAGFHRWNNYMMDWKNQFNDYTSKKESCVGL | 97 µM | – | not a cocaine hydrolase
5 | A328I (protein, UniProt P06276 29-602, looked up, variant A328I) Cholinesterase: EDDIIIATKNGKVRGMNLTVFGGTVTAFLGIPYAQPPLGRLRFKKPQSLTKWSDIWNATKYANSCCQNIDQSFPGFHGSEMWNPNTDLSEDCLYLNVWIPAPKPKNATVLIWIYGGGFQTGTSSLHVYDGKFLARVERVIVVSMNYRVGALGFLALPGNPEAPGNMGLFDQQLALQWVQKNIAAFGGNPKSVTLFGESAGAASVSLHLLSPGSHSLFTRAILQSGSFNAPWAVTSLYEARNRTLNLAKLTGCSRENETEIIKCLRNKDPQEILLNEAFVVPYGTPLSVNFGPTVDGDFLTDMPDILLELGQFKKTQILVGVNKDEGTIFLVYGAPGFSKDNNSIITRKEFQEGLKIFFPGVSEFGKESILFHYTDWVDDQRPENYREALGDVVGDYNFICPALEFTKKFSEWGNNAFFYYFEHRSSKLPWPEWMGVMHGYEIEFVFGLPLERRDNYTKAEEILSRSIVKRWANFAKYGNPNETQNNSTSWPVFKSTEQKYLTLNTESTRIMTKLRAQQCRFWTSFFPKVLEMTGNIDEAEWEWKAGFHRWNNYMMDWKNQFNDYTSKKESCVGL | 11 µM | 0.0083 s⁻¹ | Not a cocaine hydrolase
6 | Y332A (protein, UniProt P06276 29-602, looked up, variant Y332A) Cholinesterase: EDDIIIATKNGKVRGMNLTVFGGTVTAFLGIPYAQPPLGRLRFKKPQSLTKWSDIWNATKYANSCCQNIDQSFPGFHGSEMWNPNTDLSEDCLYLNVWIPAPKPKNATVLIWIYGGGFQTGTSSLHVYDGKFLARVERVIVVSMNYRVGALGFLALPGNPEAPGNMGLFDQQLALQWVQKNIAAFGGNPKSVTLFGESAGAASVSLHLLSPGSHSLFTRAILQSGSFNAPWAVTSLYEARNRTLNLAKLTGCSRENETEIIKCLRNKDPQEILLNEAFVVPYGTPLSVNFGPTVDGDFLTDMPDILLELGQFKKTQILVGVNKDEGTAFLVAGAPGFSKDNNSIITRKEFQEGLKIFFPGVSEFGKESILFHYTDWVDDQRPENYREALGDVVGDYNFICPALEFTKKFSEWGNNAFFYYFEHRSSKLPWPEWMGVMHGYEIEFVFGLPLERRDNYTKAEEILSRSIVKRWANFAKYGNPNETQNNSTSWPVFKSTEQKYLTLNTESTRIMTKLRAQQCRFWTSFFPKVLEMTGNIDEAEWEWKAGFHRWNNYMMDWKNQFNDYTSKKESCVGL | 240 µM | – | –
7 | Q119Y/V288F/A328Y (protein, UniProt P06276 29-602, looked up, variant Q119Y V288F A328Y) Cholinesterase: EDDIIIATKNGKVRGMNLTVFGGTVTAFLGIPYAQPPLGRLRFKKPQSLTKWSDIWNATKYANSCCQNIDQSFPGFHGSEMWNPNTDLSEDCLYLNVWIPAPKPKNATVLIWIYGGGFYTGTSSLHVYDGKFLARVERVIVVSMNYRVGALGFLALPGNPEAPGNMGLFDQQLALQWVQKNIAAFGGNPKSVTLFGESAGAASVSLHLLSPGSHSLFTRAILQSGSFNAPWAVTSLYEARNRTLNLAKLTGCSRENETEIIKCLRNKDPQEILLNEAFVVPYGTPLSFNFGPTVDGDFLTDMPDILLELGQFKKTQILVGVNKDEGTYFLVYGAPGFSKDNNSIITRKEFQEGLKIFFPGVSEFGKESILFHYTDWVDDQRPENYREALGDVVGDYNFICPALEFTKKFSEWGNNAFFYYFEHRSSKLPWPEWMGVMHGYEIEFVFGLPLERRDNYTKAEEILSRSIVKRWANFAKYGNPNETQNNSTSWPVFKSTEQKYLTLNTESTRIMTKLRAQQCRFWTSFFPKVLEMTGNIDEAEWEWKAGFHRWNNYMMDWKNQFNDYTSKKESCVGL | 33 µM | 0.0383 s⁻¹ | Not a cocaine hydrolase
8 | A328F (protein, UniProt P06276 29-602, looked up, variant A328F) Cholinesterase: EDDIIIATKNGKVRGMNLTVFGGTVTAFLGIPYAQPPLGRLRFKKPQSLTKWSDIWNATKYANSCCQNIDQSFPGFHGSEMWNPNTDLSEDCLYLNVWIPAPKPKNATVLIWIYGGGFQTGTSSLHVYDGKFLARVERVIVVSMNYRVGALGFLALPGNPEAPGNMGLFDQQLALQWVQKNIAAFGGNPKSVTLFGESAGAASVSLHLLSPGSHSLFTRAILQSGSFNAPWAVTSLYEARNRTLNLAKLTGCSRENETEIIKCLRNKDPQEILLNEAFVVPYGTPLSVNFGPTVDGDFLTDMPDILLELGQFKKTQILVGVNKDEGTFFLVYGAPGFSKDNNSIITRKEFQEGLKIFFPGVSEFGKESILFHYTDWVDDQRPENYREALGDVVGDYNFICPALEFTKKFSEWGNNAFFYYFEHRSSKLPWPEWMGVMHGYEIEFVFGLPLERRDNYTKAEEILSRSIVKRWANFAKYGNPNETQNNSTSWPVFKSTEQKYLTLNTESTRIMTKLRAQQCRFWTSFFPKVLEMTGNIDEAEWEWKAGFHRWNNYMMDWKNQFNDYTSKKESCVGL | 24 µM | 0.0967 s⁻¹ | Not a cocaine hydrolase
9 | V288F (protein, UniProt P06276 29-602, looked up, variant V288F) Cholinesterase: EDDIIIATKNGKVRGMNLTVFGGTVTAFLGIPYAQPPLGRLRFKKPQSLTKWSDIWNATKYANSCCQNIDQSFPGFHGSEMWNPNTDLSEDCLYLNVWIPAPKPKNATVLIWIYGGGFQTGTSSLHVYDGKFLARVERVIVVSMNYRVGALGFLALPGNPEAPGNMGLFDQQLALQWVQKNIAAFGGNPKSVTLFGESAGAASVSLHLLSPGSHSLFTRAILQSGSFNAPWAVTSLYEARNRTLNLAKLTGCSRENETEIIKCLRNKDPQEILLNEAFVVPYGTPLSFNFGPTVDGDFLTDMPDILLELGQFKKTQILVGVNKDEGTAFLVYGAPGFSKDNNSIITRKEFQEGLKIFFPGVSEFGKESILFHYTDWVDDQRPENYREALGDVVGDYNFICPALEFTKKFSEWGNNAFFYYFEHRSSKLPWPEWMGVMHGYEIEFVFGLPLERRDNYTKAEEILSRSIVKRWANFAKYGNPNETQNNSTSWPVFKSTEQKYLTLNTESTRIMTKLRAQQCRFWTSFFPKVLEMTGNIDEAEWEWKAGFHRWNNYMMDWKNQFNDYTSKKESCVGL | 17 µM | 0.0167 s⁻¹ | Not a cocaine hydrolase
